Experimental data as given in publication PMC12329532 (2025).

Assays:
Assay in all cases: FP
[1] = molecular target: N-terminally His6-tagged human IDO1 (indoleamine 2,3-dioxygenase 1), purified apo-IDO1 (human, UniProt P14902 1-403, Alexa Fluor 488 on Cys groups (in the fluorescence polarisation assay only))
[2] = molecular target: His6-IDO1 K101D, purified (human, UniProt P14902 1-403, K101D, Alexa Fluor 488 on Cys groups)
[3] = molecular target: His6-IDO1 K101A, purified (human, UniProt P14902 1-403, K101A, Alexa Fluor 488 on Cys groups)

Chain of N-terminally His6-tagged human IDO1 (indoleamine 2,3-dioxygenase 1), purified apo-IDO1 (P14902 whole entry): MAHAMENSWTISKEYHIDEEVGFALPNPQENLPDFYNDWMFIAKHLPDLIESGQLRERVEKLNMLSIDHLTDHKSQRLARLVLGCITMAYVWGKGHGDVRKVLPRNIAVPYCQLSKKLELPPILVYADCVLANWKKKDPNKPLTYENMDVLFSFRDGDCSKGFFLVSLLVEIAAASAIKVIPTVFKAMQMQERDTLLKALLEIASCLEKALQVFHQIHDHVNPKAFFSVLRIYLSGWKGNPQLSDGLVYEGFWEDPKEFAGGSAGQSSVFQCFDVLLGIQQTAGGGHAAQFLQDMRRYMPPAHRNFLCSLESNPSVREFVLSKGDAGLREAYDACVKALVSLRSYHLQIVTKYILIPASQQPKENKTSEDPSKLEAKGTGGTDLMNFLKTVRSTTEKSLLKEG

B1: human recombinant TC-GAPDH (GAPDH with a tetra-Cys insertion sequence near its heme binding site), wild type, purified (enzyme)
chain: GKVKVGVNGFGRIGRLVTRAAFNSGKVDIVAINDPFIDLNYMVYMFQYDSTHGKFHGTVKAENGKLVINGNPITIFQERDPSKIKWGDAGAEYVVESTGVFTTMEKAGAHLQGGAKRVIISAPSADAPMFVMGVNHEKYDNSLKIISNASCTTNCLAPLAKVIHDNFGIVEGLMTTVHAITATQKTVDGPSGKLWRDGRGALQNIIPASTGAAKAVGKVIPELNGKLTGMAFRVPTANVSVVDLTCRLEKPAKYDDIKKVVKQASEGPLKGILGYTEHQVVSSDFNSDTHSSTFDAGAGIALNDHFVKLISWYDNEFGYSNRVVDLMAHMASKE
- Kd [1]: 1.79 µM
- Kd [2]: 4.45 µM
- Kd [3]: 4.66 µM
